The text below walks through data of patent US20080138349A1.

Assay [1] has as its target FcγRIIIA 158F (CD16A F158), soluble monomer (human) (UniProt P08637). Kind of assay: value on CD16A 158F over value on CD32B.
The target in assay [2] is FcγRIIIA 158V (CD16A V158), soluble monomer (human) (UniProt P08637). In words: value on CD16A 158V over value on CD32B.
The target in assay [3] is FcγRIIA 131H (CD32A H131), soluble dimeric Fc fusion (human) (UniProt P12318). In words: value on CD32A 131H over value on CD32B.
Assay [4] deals with FcγRIIA 131R (CD32A R131), soluble dimeric Fc fusion (human) (UniProt P12318). In words: method not given.
Assay [5] addresses FcγRIIA 131H (CD32A H131), soluble dimeric Fc fusion (human) (UniProt P12318). Kind of assay: method not given.
Assay [6] deals with FcγRIIIA 158F (CD16A F158), soluble monomer (human) (UniProt P08637). Kind of assay: method not given.
Assay [7] concerns the target FcγRIIIA 158V (CD16A V158), soluble monomer (human) (UniProt P08637). Kind of assay: method not given.
The target of assay [8] is FcγRIIB (CD32B), soluble dimeric Fc fusion (human) (UniProt P31994). In words: method not given.
The target in assay [9] is soluble monomeric FcγRIIIA, the extracellular region of FcγRIIIA joined to the linker-AVITAG sequence (UniProt P08637). Kind of assay: yeast display FACS; 0.1 µM biotinylated FcγRIIIA-linker-avitag chased with unlabeled monomer.
In the next assay the target is FcγRIIIA (UniProt P08637). In words: ELISA. Background: ELISA stands for enzyme-linked immunosorbent assay.
In assay [10] the target is soluble monomeric FcγRIIIA, the extracellular region of FcγRIIIA joined to the linker-AVITAG sequence (UniProt P08637). Kind of assay: BIAcore. A general note: Surface plasmon resonance follows binding to a sensor surface in real time, without labels.
The target of assay [11] is FcγRIIB-Fc fusion protein, soluble dimeric: extracellular domain of FcγRIIB fused to the hinge-CH2-CH3 domain of human IgG2 (human) (UniProt P31994). In words: BIAcore.
For assay [12], the target named is soluble monomeric FcγRIIIA, the extracellular region of FcγRIIIA joined to the linker-AVITAG sequence (UniProt P08637). In words: BIAcore, antibody captured on BSA-FITC.
Assay [13] has as its target FcγRIIB-Fc fusion protein, soluble dimeric: extracellular domain of FcγRIIB fused to the hinge-CH2-CH3 domain of human IgG2 (human) (UniProt P31994). In words: BIAcore, antibody captured on BSA-FITC.
The target is the same in assay [14]. In words: ELISA.
In a further assay the target is FcγRIIIA 158V, soluble (UniProt P08637). Kind of assay: BIAcore, 2B6 captured by soluble CD32B.
The target of another assay is FcγRIIIA 158F, soluble (UniProt P08637). Kind of assay: BIAcore, 2B6 captured by soluble CD32B.
FcγRIIIA 158F, soluble, sequence (P08637 17-208 limits assumed): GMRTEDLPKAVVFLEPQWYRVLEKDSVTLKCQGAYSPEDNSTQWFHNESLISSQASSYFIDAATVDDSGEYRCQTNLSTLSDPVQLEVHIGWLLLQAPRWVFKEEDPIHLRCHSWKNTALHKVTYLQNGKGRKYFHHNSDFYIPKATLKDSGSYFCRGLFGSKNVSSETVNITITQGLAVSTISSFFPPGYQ

FcγRIIA 131H (CD32A H131), soluble dimeric Fc fusion (human), sequence (P12318 34-217): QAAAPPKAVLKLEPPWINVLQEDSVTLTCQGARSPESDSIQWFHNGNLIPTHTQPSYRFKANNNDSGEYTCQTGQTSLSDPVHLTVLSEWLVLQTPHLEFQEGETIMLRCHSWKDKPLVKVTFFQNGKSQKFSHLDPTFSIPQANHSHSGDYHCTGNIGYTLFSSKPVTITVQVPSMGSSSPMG
FcγRIIB (CD32B), soluble dimeric Fc fusion (human), sequence (P31994 43-217): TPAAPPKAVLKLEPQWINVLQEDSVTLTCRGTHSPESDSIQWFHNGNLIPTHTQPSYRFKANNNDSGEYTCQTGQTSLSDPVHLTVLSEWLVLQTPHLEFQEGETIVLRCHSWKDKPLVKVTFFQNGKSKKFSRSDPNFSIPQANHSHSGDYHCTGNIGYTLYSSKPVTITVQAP
FcγRIIB-Fc fusion protein, soluble dimeric: extracellular domain of FcγRIIB fused to the hinge-CH2-CH3 domain of human IgG2 (human), sequence (P31994 43-217 limits assumed): as the sequence (P31994 43-217) above
FcγRIIA 131R (CD32A R131), soluble dimeric Fc fusion (human), sequence (P12318 34-217 H167R): as the sequence (P12318 34-217) above, with H134R counted along it
FcγRIIIA 158V (CD16A V158), soluble monomer (human), sequence (P08637 17-208 F176V): as the sequence (P08637 17-208 limits assumed) above, with F160V counted along it
FcγRIIIA, sequence (P08637 17-208 limits assumed): as the sequence (P08637 17-208 limits assumed) above
soluble monomeric FcγRIIIA, the extracellular region of FcγRIIIA joined to the linker-AVITAG sequence, sequence (P08637 17-208 limits assumed): as above
FcγRIIIA 158F (CD16A F158), soluble monomer (human), sequence (P08637 17-208): as the sequence (P08637 17-208 limits assumed) above
FcγRIIIA 158V, soluble, sequence (P08637 17-208 F176V limits assumed): as the sequence (P08637 17-208 limits assumed) above, with F160V counted along it

Regarding “Immunoglobulin with variant Fc region L234F, F243L, R292P, Y300L (antibody)”, in assay [1], the Ratio of Affinities 16A-158F:32B turned out to be 8. Further, the Ratio of Affinities 16A-158V:32B in assay [2] was found to be 8.5. Besides, the Ratio of Affinities 32A-131H:32B in [3] came out at 1.5. Further, the binding relative to wt (wt = 1) in assay [4] amounted to 0.2; in assay [5] it was 0.3; in assay [6], 1.6; in [7], 1.7; in [8] it was 0.2.
As to “Immunoglobulin with variant Fc region L235I, F243L, R292P, Y300L (antibody)”, in assay [1], the Ratio of Affinities 16A-158F:32B came out at 16.5. Also, the Ratio of Affinities 16A-158V:32B in assay [2] amounted to 13. In addition, in assay [3], the Ratio of Affinities 32A-131H:32B amounted to 2.5. In addition, the binding relative to wt (wt = 1) was found to be 0.1 in assay [4]; 0.5 in [5]; 3.3 in assay [6]; 2.6 in [7]; 0.2 in assay [8].
As for “Immunoglobulin with variant Fc region L235V, F243L, R292P, Y300L, P396L (antibody)”, the Ratio of Affinities 16A-158F:32B in assay [1] is 12. Besides, the Ratio of Affinities 16A-158V:32B in assay [2] turned out to be 15. In addition, the Ratio of Affinities 32A-131H:32B in [3] was 3.3. In addition, the binding relative to wt (wt = 1) was found to be 0.4 in assay [4]; 1.3 in assay [5]; 4.8 in assay [6]; 6.1 in [7]; 0.4 in assay [8].
In the case of “ch4-4-20 P396L (from UniProt P01857 1-330) (antibody)”, the loss of cell staining after 1 minute with unlabeled FcγRIIIA in assay [9] is 50%. In the assay with FcγRIIIA, this substance gave an ELISA binding increase vs wt of 1 x.
The term Kd denotes the free concentration of one partner at which half of the binding sites on the other are occupied at equilibrium, for simple one-to-one binding. Regarding “ch4-4-20 antibody, wild-type Fc (chimeric anti-fluorescein, IgG1)”, the Kd amounted to 198 nM in assay [10], 94 nM in assay [11], 319 nM in assay [12] and 61.4 nM in [13]. In addition, in the assay with FcγRIIIA, the ELISA IIIA binding vs wt turned out to be 1. Besides, the ELISA, OD with FcγRIIIA amounted to 0.5 OD; in assay [14], 0.4 OD.
The term koff denotes the rate constant with which the complex falls apart. A higher koff goes with a short-lived complex. Turning to “ch-mAb 2B6 (chimeric anti-CD32B), wild-type IgG1 Fc (antibody)”, the koff with FcγRIIIA 158V, soluble stood at 0.192 s⁻¹; in the assay with FcγRIIIA 158F, soluble, 0.434 s⁻¹.
